Reference: paper PMC7555306, “Domain Organization in Plant Blue-Light Receptor Phototropin2 of Arabidopsis thaliana Studied by Small-Angle X-ray Scattering” (International Journal of Molecular Sciences, 2020)

B1: LOV1 fragment of Arabidopsis thaliana phototropin2 (domain or fragment, UniProt P93025 117-265, looked up)
chain: FPRVSQELKTALSTLQQTFVVSDATQPHCPIVYASSGFFTMTGYSSKEIVGRNCRFLQGPDTDKNEVAKIRDCVKNGKSYCGRLLNYKKDGTPFWNLLTVTPIKDDQGNTIKFIGMQVEVSKYTEGVNDKALRPNGLSKSLIRYDARQK
notes: phototropin2 (phot2), Arabidopsis thaliana, LOV1 fragment, residues 117-265 of the 915-residue protein; also called phot2 LOV1
B2: Asp720Asn-mutated full-length phototropin2 of Arabidopsis thaliana (natural protein)
chain: MERPRAPPSPLNDAESLSERRSLEIFNPSSGKETHGSTSSSSKPPLDGNNKGSSSKWMEFQDSAKITERTAEWGLSAVKPDSGDDGISFKLSSEVERSKNMSRRSSEESTSSESGAFPRVSQELKTALSTLQQTFVVSDATQPHCPIVYASSGFFTMTGYSSKEIVGRNCRFLQGPDTDKNEVAKIRDCVKNGKSYCGRLLNYKKDGTPFWNLLTVTPIKDDQGNTIKFIGMQVEVSKYTEGVNDKALRPNGLSKSLIRYDARQKEKALDSITEVVQTIRHRKSQVQESVSNDTMVKPDSSTTPTPGRQTRQSDEASKSFRTPGRVSTPTGSKLKSSNNRHEDLLRMEPEELMLSTEVIGQRDSWDLSDRERDIRQGIDLATTLERIEKNFVISDPRLPDNPIIFASDSFLELTEYSREEILGRNCRFLQGPETDQATVQKIRDAIRDQREITVQLINYTKSGKKFWNLFHLQPMRDQKGELQYFIGVQLDGSDHVEPLQNRLSERTEMQSSKLVKATATNVDEAVRELPDANTRPEDLWAAHSKPVYPLPHNKESTSWKAIKKIQASGETVGLHHFKPIKPLGSGDTGSVHLVELKGTGELYAMKAMEKTMMLNRNKAHRACIEREIISLLDHPFLPTLYASFQTSTHVCLITDFCPGGELFALLDRQPMKILTEDSARFYAAEVVIGLEYLHCLGIVYRDLKPENILLKKDGHIVLANFDLSFMTTCTPQLIIPAAPSKRRRSKSQPLPTFVAEPSTQSNSFVGTEEYIAPEIITGAGHTSAIDWWALGILLYEMLYGRTPFRGKNRQKTFANILHKDLTFPSSIPVSLVGRQLINTLLNRDPSSRLGSKGGANEIKQHAFFRGINWPLIRGMSPPPLDAPLSIIEKDPNAKDIKWEDDGVLVNSTDLDIDLF
notes: phototropin2 (phot2), Arabidopsis thaliana, full length, residues 1-915, with Asp720Asn; also called phot2; full-length phot2

Molecular target: the molecule itself
Assay: SAXS; in solution at 293 K, at least three specimen concentrations, extrapolated to infinite dilution; in the dark (D450), under blue-light irradiation (S390) and after dark reversion; apparent molecular weight from I(S=0,C=0) against hen egg-white lysozyme or the buffer's scattering

Protein | stoichiometry N
B1 | 2
B2 | 2
